{
  "source": "patent US20050037969A1",
  "key": {"[1]": {"target": "GST-TIP-1 PDZ domain fusion protein (Homo sapiens) (UniProt O14907)", "assay": "competition for TIP1 binding, reference CD95"}, "[2]": {"target": "GST-TIP-1 PDZ domain fusion protein (Homo sapiens) (UniProt O14907)", "assay": "G assay competition against 20 uM CD95 20-mer"}, "[3]": {"target": "GST-TIP-1 PDZ domain fusion protein (Homo sapiens) (UniProt O14907)", "assay": "G assay competition against CD95 20-mer"}, "[4]": {"target": "GST-NeDLG fusion protein (PDZ domains 1-2) (Mus musculus (Mouse)) (UniProt P70175)", "assay": "G assay titration of biotinylated peptide on plate-bound GST-PDZ, apparent affinity from saturation fit"}, "[5]": {"target": "GST-DLG1 fusion protein (PDZ domains 1-2) (human) (UniProt Q12959)", "assay": "G assay titration of biotinylated peptide on plate-bound GST-PDZ, apparent affinity from saturation fit"}, "[6]": {"target": "GST-WWP3 (MAGI-1) fusion protein (PDZ domains 1-2) (Homo sapiens) (UniProt Q96QZ7)", "assay": "G assay format, competition against labeled DNAM-1 peptide"}, "[7]": {"target": "GST-TIP-1 PDZ domain fusion protein (Homo sapiens) (UniProt O14907)", "assay": "G assay competition against 20 uM TAX 20-mer"}},
  "note": "Ends that are not written are not given here. * marks the point of attachment. Biotin = O=C1N[C@H]2[C@H](CS[C@H]2CCCCC(=O)*)N1",
  "data": [
    {"binder": "KHFRETEV", "note": "[8-mer peptide corresponding to the C-terminus of TAX]", "values": [
      {"measurement": "fold better competition for binding to TIP1 than CD95", "setting": "[1]", "result": 1000, "unit": "fold"},
      {"measurement": "IC50", "setting": "[2]", "result": "20 to 100", "unit": "µM"},
      {"measurement": "concentration that effectively blocked binding", "setting": "[3]", "result": 100, "unit": "µM"}
    ]},
    {"binder": "Biotin-ISGTPTSTMVHGMTSSSSVV", "note": "[Clasp-2 C-terminal peptide AA2L, biotinylated]", "values": [
      {"measurement": "Kd", "setting": "[4]", "result": 7.5, "unit": "µM"},
      {"measurement": "Kd", "setting": "[5]", "result": 21, "unit": "µM"}
    ]},
    {"binder": "SRRPKTRV", "note": "[peptide corresponding to the C-terminal 8 amino acids of DNAM-1]", "values": [
      {"measurement": "inhibitor concentration giving at least 50% inhibition", "setting": "[6]", "result": "20 to 200", "unit": "µM"}
    ]},
    {"binder": "Biotin-KDITSDSENSNFRNEIQSLV", "note": "[CD95 (Fas) C-terminal peptide AA13L, biotinylated]", "values": [
      {"measurement": "Kd", "setting": "[4]", "result": 54, "unit": "µM"},
      {"measurement": "Kd", "setting": "[5]", "result": 54, "unit": "µM"}
    ]},
    {"binder": "RNEIQSLV", "note": "[Fas (CD95) 8-mer competitor peptide RNEIQSLV (unlabeled)]", "values": [
      {"measurement": "IC50", "setting": "[7]", "result": 500, "unit": "µM"}
    ]}
  ]
}
